Test results from patent publication US20230242671A1 (Eli Lilly, published 2023).

Key:
[1] = target: T1, CaptureSelect Kappa XL ligand; assay: CaptureSelect Kappa XL affinity column after Protein A
T1 construct: also called Biotin-KappaXL; Kappa XL column
Source text: Multispecific binding proteins of the present disclosure, in clarified medium or recovered from Protein A purification, may be subjected to a second purification step using a CaptureSelect™ Kappa XL (Thermo Fisher Cat. #494321001) pre-packed affinity column. Briefly, multispecific binding proteins of the present disclosure recovered from Protein A purification are subjected to a Kappa XL affinity column which has been equilibrated with a compatible buffer, such as phosphate buffered saline (PBS) at pH 7.4. The column is then washed to remove nonspecific binding components. The bound multispecific binding protein is eluted, for example, by pH gradient (such as 20 mM Tris buffer pH 7.0 to 10 mM sodium citrate buffer pH 3.0). Binding protein fractions are detected, such as by UV absorbance or SDS-PAGE, and then are pooled.
Percent flow through (% F T) and percent elution of exemplified heteromabs of the present disclosure following kappa XL column purification essentially as described herein is assessed. Briefly, various antibody formats (as set forth in Table 3) are subjected to Kappa XL column. Flow through material is considered to comprise of impurities, such as homodimers, or misassembled antibodies, whereas the Kappa XL ligand bound material (elution material) is considered to be the correctly assembled bispecific antibody.

[2] = target: T1, CaptureSelect Kappa XL ligand; assay: ELISA, antibody titrated on goat anti-human-IgG, Biotin-KappaXL at 1 ug/ml
Experimental: Binding of the light chain Fab region formats of Table 1a for exemplified IgG hetermabs to Kappa XL ligand may be assessed via ELISA. Briefly, 96-well flat bottom ELISA plates are coated with 2 ug/mL goat anti-human-IgG protein at 100 ul/well and incubated overnight at 4° C. The following day, plates are washed 3× with wash buffer (0.05% PBS-Tween 20) and blocked for 1 hr with blocking buffer (casein, 200 μL/well) at room temperature (RT). Plates are washed 3× with wash buffer, and binding proteins (as shown in Table 5) are added at 10 μg/mL and serially diluted at 1:3 at 100 uL/well in DPBS (Dulbecco's HyClone). Plates are incubated at RT for 1 hr, are washed 3× with wash buffer and Biotin-KappaXL is added at 1 ug/ml at 100 uL/well. Plates are then incubated for 1 hr at RT, washed 3×, and 100 uL/well of SA-AP is added to each well and incubated 30 min at RT. Plates are then washed 3×, and 100 uL/well PNAP substrate is added. Reactions are stopped and the optical density is measured using a colorimetric microplate reader set to 405 nm.

[3] = target: T2, Protein A (UniProt P38507 37-327, biotin (site not stated)); assay: ELISA, antibody titrated on goat anti-human-kappa, Biotin-Protein A at 0.5 ug/ml
T2 construct: Reagent; also called Biotin-Protein A; Protein A ligand
Experimental: Binding of the heavy chain Fc region formats of Table 1b for exemplified IgG heteromabs to Protein A ligand may be assessed via ELISA. Briefly, 96-well flat bottom Elisa plates are coated with 2 ug/mL goat anti-human-kappa protein at 100 ul/well and incubated overnight at 4° C. The following day, plates are washed 3× with wash buffer 0.05% PBS-Tween 20 (PBS-T)) and blocked for 1 hr with blocking buffer (casein, 200 µL/well) at room temperature (RT). Plates are washed 3× with wash buffer, and binding proteins (as shown in Table 4) are added to individual wells at 10 μg/mL and serially diluted 1:3, at a volume of 100 uL/well in PBS-T. Plates are incubated at RT for 1 hr, and washed 3× with wash buffer. Biotin-Protein A at 0.5 ug/ml is added at 100 uL/well and plates are incubated for 1 hr at RT, washed 3×, and 100 uL/well of streptavidin labeled alkaline phosphatase (SA-AP) is added to each well. Plates are incubated 30 min at RT. Plates are then washed 3×, and 100 uL/well of p-Nitrophenyl Phosphate, Disodium Salt (PNAP)(Thermo Fisher Scientific) substrate is added. Reactions are stopped and optical density is measured using a colorimetric microplate reader set to 405 nm.

B1: cMet-BAH10 parental IgG1 heteromab (bispecific antibody)
heavy 1: EVQLVESGGGLVQPGGSLRLSCAASGYTFTSYWLHWVRKAPGKGLEWVGMIDPSNSDTRFNPEFKDRFTISADTSKNTAYLQMNSLRAEDTAVYYCATYRSYVTPLDYWGQGTLVTVSSASTKGPSVFPLAPSSKSTSGGTAALGCLVKDYFPEPVTVSWNSGALTSGVATGPAVLQSSGLYSLSSVVTVPSSSLGTQTYICNVNHKPSNTKVDKKVEPKSCDKTHTCPPCPAPEAAGGPSVFLFPPKPKDTLMISRTPEVTCVVVDVSHEDPEVKFNWYVDGVEVHNAKTKPREEQYNSTYRVVSVLTVLHQDWLNGKEYKCKVSNKALPAPIEKTISKAKGQPREPQVYTLPPSREEMTDNQVSLTCLVKGFYPSDIAVEWESNGQPENNYKTTPPVLMSDGSFFLASKLTVDKSRWQQGNVFSCSVMHEALHNHYTQKSLSLSPGK
light 1: RIQMTQSPSSLSASVGDRVTITCKSSQSLLYTSSQKNYLAWYQDKPGKAPKLLIYWASTRESGVPSRFSGSGSGTDFTLTISSLQPEDFATYYCQQYYAYPWTFGQGTKVEIKRTVAAPSVFIFPPSDEQLKSGTASVVCYLNNFYPREAKVQWKVDNALQSGNSQESVTEQDSKDSTYSLWSTLTLSKADYEKHKVYACEVTHQGLSSPVTKSFNRGEC
heavy 2: QVQLVQSGAEVKKPGSSVKVSCKASGYTFTTYYLHWVRYAPGQGLEWMGWIYPGNVHAQYNEKFKGRVTITADKSTSTAYMELSSLRSEDTAVYYCARSWEGFPYWGRGTTVTVSSASTKGPSVFPLAPCSKSTSGGTAALGCLVKDYFPEPVTVSWNSGALTSGVHTFPAVLQSSGLYSLSSVVTVPSSSLGTQTYICNVNHKPSNTKVDKKVEPDSGDKTHTCPPCPAPEAAGGPSVFLFPPKPKDTLMISRTPEVTCVVVDVSHEDPEVKFNWYVDGVEVHNAKTKPREEQYNSTYRVVSVLTVLHQDWLNGKEYKCKVSNKALPAPIEKTISKAKGQPRRPRVYTLPPSREEMTKNQVSLVCLVKGFYPSDIAVEWESNGQPENNYKTTPPVLDSDGSFFLYSVLTVDKSRWQQGNVFSCSVMHEALHNHYTQKSLSLSPGK
light 2: DIQMTQSPSSLSASVGDRVTITCKASQNVGINVAWYQRKPGDAPKSLISSASYRYSGVPSRFSGSGSGTDFTLTISSLQPEDFATYFCQQYDTYPFTFGQGTKVEIKRTVAAPSVFIFPPSKEQLKSGTASVVCLLNNFYPREAKVQWKVDNALQSGNSQESVTEQDSKDSTYSLSSTLTLSKADYEKHKVYACEVTHQGLSSPVTKSFNRGEC
notes: control; also called cMet-BAH10 IgG1 heteromab; cMet-BAH10 IgG heteromab
Question: With B1 as the binder, how does the “% Elution” value [1] read?
Answer: 94.5%

Question: What about the “% Flow Through (FT)” value [1] of the same binder?
Answer: 5.5%

Question: And the EC50 [2]?
Answer: 570 pM

Question: What about the EC50 [3] of the same binder?
Answer: 480 pM
